The text below walks through data of PMC5346706, “Anti-metastatic effect of the TM4SF5-specific peptide vaccine and humanized monoclonal antibody on colon cancer in a mouse lung metastasis model” (Oncotarget, 2016).

In assay [1] the target is cyclic peptide hTM4SF5EC2-C (human). As to the kind of experiment: SPR; biotinylated peptide immobilized on a streptavidin chip, increasing amounts of antibody applied; SR7500DC Reichert SPR system.
Assay [2] concerns the target T1, Myc-tagged recombinant human TM4SF5 protein (Homo sapiens (Huh-7 cDNA), UniProt O14894).
T1 construct: human transmembrane 4 superfamily member 5 protein (TM4SF5); cDNA amplified from Huh-7 mRNA with the printed primers (5' primer holds the ATG); also called Myc-tagged hTM4SF5; hTM4SF5
As to the kind of experiment: western blotting; whole cell lysates of HEK 293F-EV and HEK 293F-TM4SF5 cells resolved on SDS-PAGE and probed with the antibody. Conditions: one partner purified.

T1 sequence (O14894 whole entry): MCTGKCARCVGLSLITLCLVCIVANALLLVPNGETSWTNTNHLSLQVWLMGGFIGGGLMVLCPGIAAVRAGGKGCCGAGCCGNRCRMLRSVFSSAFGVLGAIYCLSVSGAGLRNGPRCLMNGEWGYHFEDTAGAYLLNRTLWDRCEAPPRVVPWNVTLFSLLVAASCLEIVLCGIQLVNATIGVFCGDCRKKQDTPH

B1: mouse anti-TM4SF5 monoclonal antibody mEC2-C (antibody, V domains shown)
VH: QVQLEESGPGLVAPSQSLSIICTVSGFSLTSYGVTWVRQPPGKGLEWLGVIWSDGSTNYQSALISRLTISRDNSKSQAFLKLNSLQTDDTATYYCARPSNYYYFDYWGQGTTLTVSS
VL: DIVMTQSPSSLAVSAGERVTLSCKSSQSLFDRRTRKTYLAWYQQKPGQSPKLLISWASTRESGVPDRFTGSGSGTDFTLTISSVQAEDLAVYYCKQSYNLFTFGGGTKLEIK
notes: VH of mEC2-C (mouse VH2 subtype); mouse IgG3 heavy chain constant region; VL of mEC2-C (mouse Vk8 subtype); mouse kappa light chain constant region (cloned with kappa chain primers); Mouse IgG3, kappa; also called mEC2-2; source: hybridoma, purified from ascitic fluid (Protein A column)
What is called Kd is the concentration at which binding is half-saturated. Low values mean higher affinity, high ones lower affinity. By koff is commonly meant a measure of how fast the partners let go of each other. A higher koff goes with fast dissociation. In assay [1], B1 returned a Kd of less than 0.48 nM and a koff of less than 1e-05 s⁻¹. Further, the binding result in assay [2] was “binds”.
